Columns and labels:
[1] = circular dichroism of synthetic TM peptides; format: physicochemical; details: CD; triple distilled water with 0, 0.01, 0.1, 0.5% DDM
Procedure: (§1) CD spectra were recorded using a J-810 spectropolarimeter (Jasco, Easton, MD, USA) in a 0.1 cm quartz cuvette. Far-UV CD spectra were collected over 190–260 nm. ITC measurements were carried out at 20 °C on an ITC (VP–ITC 200, MicroCal). 820 µM FZD6 TM5 and 165 µM FZD6 TM4 were dissolved in 0.5% DDM in water. 2 µl of TM5 peptide were injected into 260 µl TM4 during each titration. The ITC data were analyzed with the Origin 7.0 software.
Supplementary Figure 5: Circular dichroism (CD) and isothermal titration calorimetry (ITC) experiments for structural analysis of synthetic peptides resembling TM1, 4, 5 and mutant TM5 and of peptide-peptide interactions, related to Figure 3. Synthetic peptides (for sequence see Supplementary Fig. 9) resembling TM1 (a), 4 (b), 5 (c) and mutant TM5 (d) were used for CD experiments in triple distilled water with increasing DDM concentrations (0% DDM – black, 0.01% DDM – blue, 0.1% DDM – green and 0.5% DDM – red). (c)TM5 is unstructured in TDW and begins to gain structure at 0.1% DDM. It forms a clear α-helical structure in 0.5% DDM. The triple mutated TM5 (d) forms an α-helix in a much lower DDM concentration (0.01% DDM). […]

TM4 peptide of FZD6 = assay: analytical size-exclusion chromatography of TM peptides; format: binding, human; details: TDW + 0.01% DDM; 500 µM each peptide; Superdex 30; 0.8 ml min^−1; room temperature; 215 nm; 2 h incubation
Procedure: Analytical SEC was performed on an ÄKTA Explorer with a Superdex 30 analytical column (GE Healthcare) equilibrated with TDW + 0.01% DDM. Peptides were eluted with a flow rate of 0.8 ml min^−1 at room temperature. Elution profile was monitored by UV absorbance at 215 nm. For the binding experiments, the peptides were incubated together in TDW + 0.01% DDM at room temperature for 2 h.

FZD6-TM4 = target: T1, FZD6-TM4 (Homo sapiens, UniProt O60353); assay: isothermal titration calorimetry of TM peptides; format: binding; details: 820 µM TM5 or TM5 mut into 165 µM TM4; 0.5% DDM; 20 °C; one set of sites
T1 construct: purchased Pepscan Therapeutics (Lelystad, Netherlands); host or cells: chemical synthesis (Fmoc solid phase)
T1 sequence (O60353 with tags, fused parts or gaps limits assumed): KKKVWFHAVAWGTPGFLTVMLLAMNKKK
Procedure: as §1

V5-FZD6-mCherry = assay: dcFRAP of V5-FZD6-mCherry/CB1-GFP (negative control); format: cell-based, human; details: HEK293
Procedure: For dual color FRAP experiments, cells grown in four compartment 35 mm glass bottom dishes were washed three times with BE buffer[19] (150 mM NaCl, 2.5 mM KCl, 10 mM HEPES, 12 mM glucose, 0.5 mM CaCl2, and 0.5 mM MgCl2). Then, the cells were incubated at RT for 30 min with biotin-conjugated goat polyclonal anti-V5 antibody (Bethyl) diluted 1:100 in BE buffer supplemented with 2.5% bovine serum albumin. For antibody-mediated cross-linking, avidin was added and incubated for 15 min and washed two times with BE buffer before the experiments were performed. In Fig. 4, dcFRAP experiments are presented that employ chemical surface crosslinking to visualize assembly of FZD6 with DVL or heterotrimeric G proteins according to previously published protocols. Live cell imaging experiments were carried out using a Zeiss 710 laser scanning microscope. Images were acquired using a 40×, 1.2 NA C-Apochromat objective and the 488 nm and the 561 nm laser lines were used to excite GFP and mCherry fluorophores, respectively. Photobleaching was performed by 100% laser illumination of a 1.80 × 1.80 µm area placed over the cell plasma membrane. Fluorescence was measured pre- and post-bleach using low-intensity illumination for a total time period of 100 s. Average pixel intensity was measured using the ZEN2013 software, corrected for background fluctuations and bleaching artifacts and normalized to pre-bleached intensity. The recovered mobile fraction (F m) was calculated as follows: F m = (I P–I 0)/(I I–I 0), where I I is the initial intensity measured prior to bleaching, I 0 is the immediate fluorescence intensity post-bleaching and I P is intensity value post-bleaching. The mobile fraction was defined by the average of the fluorescence recovery assessed between time 85–101 s (including pre-bleach measurements). We excluded experiments in which the extracellularly tagged receptors were not sufficiently immobilized after the crosslinking procedure (cutoff at 40% crosslinking-induced reduction in mobile fraction). […]

FZD6–FZD6 dimer = assay: dcFRAP of V5-FZD6-mCherry/FZD6-GFP (FZD6 dimerization); format: cell-based, human; details: HEK293, 85–101 s, mean ± s.e.m.
Procedure: For dual color FRAP experiments, cells grown in four compartment 35 mm glass bottom dishes were washed three times with BE buffer[19] (150 mM NaCl, 2.5 mM KCl, 10 mM HEPES, 12 mM glucose, 0.5 mM CaCl2, and 0.5 mM MgCl2). Then, the cells were incubated at RT for 30 min with biotin-conjugated goat polyclonal anti-V5 antibody (Bethyl) diluted 1:100 in BE buffer supplemented with 2.5% bovine serum albumin. For antibody-mediated cross-linking, avidin was added and incubated for 15 min and washed two times with BE buffer before the experiments were performed. In Fig. 4, dcFRAP experiments are presented that employ chemical surface crosslinking to visualize assembly of FZD6 with DVL or heterotrimeric G proteins according to previously published protocols. Live cell imaging experiments were carried out using a Zeiss 710 laser scanning microscope. Images were acquired using a 40×, 1.2 NA C-Apochromat objective and the 488 nm and the 561 nm laser lines were used to excite GFP and mCherry fluorophores, respectively. Photobleaching was performed by 100% laser illumination of a 1.80 × 1.80 µm area placed over the cell plasma membrane. Fluorescence was measured pre- and post-bleach using low-intensity illumination for a total time period of 100 s. Average pixel intensity was measured using the ZEN2013 software, corrected for background fluctuations and bleaching artifacts and normalized to pre-bleached intensity. The recovered mobile fraction (F m) was calculated as follows: F m = (I P–I 0)/(I I–I 0), where I I is the initial intensity measured prior to bleaching, I 0 is the immediate fluorescence intensity post-bleaching and I P is intensity value post-bleaching. The mobile fraction was defined by the average of the fluorescence recovery assessed between time 85–101 s (including pre-bleach measurements). We excluded experiments in which the extracellularly tagged receptors were not sufficiently immobilized after the crosslinking procedure (cutoff at 40% crosslinking-induced reduction in mobile fraction). Kinetic determination of mobile fractions of crosslinked V5-FZD6-mCherry and FZD6-GFP with WNT stimulation over time were performed in one cell culture well. Measurements for each time point were performed on separate cells.
Statistical and graphical analysis was performed using Graph Pad Prism 5 software. Data were analyzed by two-tailed t-test or one-way ANOVA with Fisher’s least significant difference post hoc analysis. Curve fitting of FRAP data was done with a two-phase association nonlinear function using the least square fit. Data for receptor titration in the presence of C59 and output to P-ERK1/2 in Fig. 6h was fit to a linear regression model. All experiments were repeated at least three times in independent experiments (not representing technical replicates). For single cell analysis (dcFRAP), the number of the individual ROIs obtained from several cells in at least three independent experiments is provided in the figure legends. Data from individual ROIs are summarized for data presentation providing the sum of independent observations. Significance levels are given as: *P < 0.05; **P < 0.01; ***P < 0.001. Data in FRAP curves and bar graphs (FRAP) are presented as mean ± s.e.m.

[2] = tested on: ERK1/2 phosphorylation in HEK293 cells; assay: P-ERK1/2 immunoblot, HEK293 cells expressing SNAP-FZD6 constructs; format: cell-based
Procedure: Fig. 6 Relationship between FZD6 dimerization and phosphorylation of ERK1/2. a Mouse lung epithelial (MLE-12) cells were stimulated with WNT-5A (300 ng ml^−1) for 0, 2.5, 5, 10, 20 min. Cell lysates were analyzed for P-ERK1/2 and β-actin by immunoblotting. Additional information in Supplementary Fig. 6. b Bar graph summarizes three independent experiments. Densitometry data were normalized to the unstimulated control. […] Additional information in Supplementary Fig. 6. SNAP-FZD6 wt- and SNAP-FZD6 dimer mutant-induced ERK1/2 phosphorylation in the absence e and presence f of the porcupine inhibitor C59 (5 µM, overnight) were probed by immunoblotting for the SNAP-tag, P-ERK1/2, total ERK1/2 and β-actin. g The bar graph summarizes densitometry data of P-ERK1/2 normalized to total ERK1/2 from 6 different experiments. P = 0.0005; F (2, 15) = 13.08. ***P < 0.001. Empty vector transfection was used as mock. h Increasing amounts of plasmid of either SNAP-FZD6 wt or SNAP-FZD6 dimer mutant in the presence of C59 show a dose-dependent increase in P-ERK1/2 only with the dimer mutant. Data from three independent experiments for the dimer mutant were fit to a linear least-squares model (slope = 0.40 ± 0.10; R ^2 = 0.5943) and this line is shown superimposed. […] This dissociation-dependent activation can be evoked by agonist (WNT^high) or mutation of the dimer interface (symbolized by red stars). WNT^low conditions can be achieved in the presence of C59, which reduces FZD6 wt signaling
MLE-12 or HEK293 cells (ATCC) were plated in a 24- or 48-well plate at a density of 100,000 or 50,000 cells/well, respectively. After 24 h, cells were transfected using Lipofectamine 2000 according to the manufacturer’s instructions. Cells were stimulated (24 h post-transfection) with 300 ng ml^−1 recombinant carrier-free WNT-5A (CF WNT-5A; R&D Systems). Stimulation was stopped by the addition of lysis buffer (1% NP-40, 150 mM NaCl, 50 mM Tris/HCl pH 8). Lysates were sonicated and analyzed by 7.5 or 10% Mini-PROTEAN TGX precast polyacrylamide gels (Bio-Rad) and transferred to PVDF membranes using the Trans-Blot Turbo system (Bio-Rad). After blocking with 5% milk or BSA in TBS-T, membranes were incubated with primary antibodies in blocking buffer: mouse anti-β-actin (1:30,000; Sigma #A5441), rabbit anti-FZD6 (1:1000; NovusBio #NBP1-00830), rabbit anti-Phospho-p44/42 MAPK (ERK1/2) (Thr202/Tyr204) (1:1000; Cell Signaling Technology #9101 L), rabbit anti-p44/42 MAPK (ERK1/2) (1:1000; Cell Signaling Technology #9102), rabbit anti-Phospho-C-RAF (Ser338) (1:1000; Cell Signaling Technology #56A6), rabbit anti-SNAP tag (1:1000, New England Biolabs #P9310S), and rabbit anti-HA (1:4000, abcam #ab9110) overnight at 4 °C. Proteins were detected with horseradish peroxidase-conjugated secondary antibodies (goat anti-rabbit and goat anti-mouse (Pierce)) and Clarity Western ECL Blotting Substrate (Bio-Rad). All uncropped immunoblots can be found in the Supplementary Information.

WKKLAASAAFVLLPLCLCVFVGLSLLLAGIISKKK [TM5 mut, TM5 peptide with D365A, R368A, Y369A mutations]
DDM concentration at which α-helix forms [1]: 0.01%
SEC elution volume in combination with TM4 (TM4 peptide of FZD6): did not result in a shift to a higher elution volume
ITC affinity (dissociation constant, K D) to TM4 (FZD6-TM4): does not interact

B1: CB1-GFP: GFP-tagged cannabinoid CB1 receptor, negative control (protein)
chain: MKSILDGLADTTFRTITTDLLYVGSNDIQYEDIKGDMASKLGYFPQKFPLTSFRGSPFQEKMTAGDNSPLVPAGDTTNITEFYNKSLSSFKENEENIQCGENFMDMECFMILNPSQQLAIAVLSLTLGTFTVLENLLVLCVILHSRSLRCRPSYHFIGSLAVADLLGSVIFVYSFVDFHVFHRKDSPNVFLFKLGGVTASFTASVGSLFLTAIDRYISIHRPLAYKRIVTRPKAVVAFCLMWTIAIVIAVLPLLGWNCKKLQSVCSDIFPLIDETYLMFWIGVTSVLLLFIVYAYMYILWKAHSHAVRMIQRGTQKSIIIHTSEDGKVQVTRPDQARMDIRLAKTLVLILVVLIICWGPLLAIMVYDVFGKMNKLIKTVFAFCSMLCLLNSTVNPIIYALRSKDLRHAFRSMFPSCEGTAQPLDNSMGDSDCLHKHANNTASMHRAAESCIKSTVKIAKVTMSVSTDTSAEAL
modifications: left off: GFP, end not stated, kept
notes: GFP-tagged cannabinoid CB1 receptor, negative control
CL-induced reduction in mobile fraction of CB1-GFP (V5-FZD6-mCherry; antibody-treated, co-expressing V5-FZD6-mCherry): did not exhibit a reduction in the mobile fraction of CB1-GFP upon crosslinking
mobile fraction, CB1 experiment after CL (V5-FZD6-mCherry; with crosslinking, n=34): 77,12 ± 2,601%
mobile fraction, CB1 experiment before CL (V5-FZD6-mCherry; without crosslinking, n=29): 78,48 ± 2,373%

B2: FZD6 wt: wild-type FZD6 receptor construct (SNAP-tagged in ERK assays; GFP-tagged in b181) (protein)
chain: HSLFTCEPITVPRCMKMAYNMTFFPNLMGHYDQSIAAVEMEHFLPLANLECSPNIETFLCKAFVPTCIEQIHVVPPCRKLCEKVYSDCKKLIDTFGIRWPEELECDRLQYCDETVPVTFDPHTEFLGPQKKTEQVQRDIGFWCPRHLKTSGGQGYKFLGIDQCAPPCPNMYFKSDELEFAKSFIGTVSIFCLCATLFTFLTFLIDVRRFRYPERPIIYYSVCYSIVSLMYFIGFLLGDSTACNKADEKLELGDTVVLGSQNKACTVLFMLLYFFTMAGTVWWVILTITWFLAAGRKWSCEAIEQKAVWFHAVAWGTPGFLTVMLLAMNKVEGDNISGVCFVGLYDLDASRYFVLLPLCLCVFVGLSLLLAGIISLNHVRQVIQHDGRNQEKLKKFMIRIGVFSGLYLVPLVTLLGCYVYEQVNRITWEITWVSDHCRQYHIPCPYQAKAKARPELALFMIKYLMTLIVGISAVFWVGSKKTCTEWAGFFKRNRKRDPISESRRVLQESCEFFLKHNSKVKHKKKHYKPSSHKLKVISKSMGTSTGATANHGTSAVAITSHDYLGQETLTEIQTSPETSMREVKADGASTPRLREQDCGEPASPAASISRLSGEQVDGKGQAGSVSESARSEGRISPKSDITDTGLAQSNNLQVPSSSEPSSLKGSTSLLVHPVSGVRKEQGGGCHSDT
modifications: left off: V5 (on the crosslinked copy), N-terminal, kept | mCherry (on the crosslinked copy), C-terminal, kept | GFP (on the other, mobile copy), C-terminal, kept
mobile fraction of FZD6-GFP before CL (FZD6–FZD6 dimer; basal, without biotinylated anti-V5/avidin crosslinking, N = 21 ROIs): 80,78 ± 2,053%
mobile fraction of FZD6-GFP after CL (FZD6–FZD6 dimer; with biotinylated anti-V5/avidin crosslinking, N = 31 ROIs): 70,69 ± 2,416%
P-ERK1/2 induction in presence of C59 ([2]; HEK293, C59 5 µM overnight): reduced to basal
effect of overexpression on basal P-ERK1/2 without C59 ([2]; serum-starved HEK293, no C59): increased basal P-ERK1/2

Source: article PMC5548745, “Agonist-induced dimer dissociation as a macromolecular step in G protein-coupled receptor signaling” (Nature Communications, 2017)
